From PMC4873810

Target: mouse embryonic heparan sulfate (HS) coupled to HiTrap column
Experiment: HS affinity chromatography (FPLC)
Details: 0-1.5 M NaCl gradient from fraction 5 to 14, parent: est. 100, read off a plot
[1] = value is the height of the salt-eluted peak at fraction 12

Row | response (value is the height of the salt-eluted peak at about fraction 12) [%] | response [1] [%] | Substance
1 | 5 | – | Spacer (isolated Scube2 spacer domain) K608A; R609A; K612A; R613A; R615A; K616A; R619A; R622A; K623A; H626A; R627A; K643A; K644A; R647A
2 | – | 11 | Scube2 (signal peptide, CUB domain, epidermal growth factor (EGF)-like protein 2), full-length, FLAG-tagged (from UniProt Q9NQ36) K608A; R609A; K612A; R613A; R615A; K616A; R619A; R622A; K623A; H626A; R627A; K643A; K644A; R647A
3 | – | 4 | Scube2 (signal peptide, CUB domain, epidermal growth factor (EGF)-like protein 2), full-length, FLAG-tagged (from UniProt Q9NQ36) K608E; R609E; K612E; R613E; R615E; K616E; R619E; R622E; K623E; H626E; R627E
